Laboratory results as given in publication PMC3229523, “Identification of Lactoferricin B Intracellular Targets Using an Escherichia coli Proteome Chip” (PLoS ONE, 2011).
Ends that are not written are not given here. * marks the point of attachment. Biotin = O=C1N[C@H]2[C@H](CS[C@H]2CCCCC(=O)*)N1

Assays:
Test in all cases: peptide or protein array; E. coli proteome chip: purified His-tagged proteins printed in duplicate on Fullmoon slides, blocked with 1% BSA; 10 nM N-terminal biotinylated LfcinB with 1% BSA, room temperature, 1 h; detected with DyLight 649-labeled streptavidin, ratio to DyLight 549-labeled anti-His antibody; ProCAT normalisation, local cut-off; triplicate chips
Details in all cases: both partners purified
YhjC = target: T1, YhjC (E. coli K-12, UniProt P37641 1-299)
T1 construct: YhjC, E. coli K-12
T1 sequence (looked up): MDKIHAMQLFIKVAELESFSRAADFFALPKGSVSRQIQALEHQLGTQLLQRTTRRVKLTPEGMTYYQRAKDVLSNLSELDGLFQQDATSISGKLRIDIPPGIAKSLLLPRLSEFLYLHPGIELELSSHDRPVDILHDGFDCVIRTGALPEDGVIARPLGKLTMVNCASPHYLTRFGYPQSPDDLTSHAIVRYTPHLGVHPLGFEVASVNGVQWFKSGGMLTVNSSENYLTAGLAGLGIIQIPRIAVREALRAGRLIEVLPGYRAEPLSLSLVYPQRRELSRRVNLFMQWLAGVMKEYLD

YhhI = target: T2, YhhI (E. coli K-12, UniProt P28912 1-378)
T2 construct: YhhI, E. coli K-12
T2 sequence (looked up): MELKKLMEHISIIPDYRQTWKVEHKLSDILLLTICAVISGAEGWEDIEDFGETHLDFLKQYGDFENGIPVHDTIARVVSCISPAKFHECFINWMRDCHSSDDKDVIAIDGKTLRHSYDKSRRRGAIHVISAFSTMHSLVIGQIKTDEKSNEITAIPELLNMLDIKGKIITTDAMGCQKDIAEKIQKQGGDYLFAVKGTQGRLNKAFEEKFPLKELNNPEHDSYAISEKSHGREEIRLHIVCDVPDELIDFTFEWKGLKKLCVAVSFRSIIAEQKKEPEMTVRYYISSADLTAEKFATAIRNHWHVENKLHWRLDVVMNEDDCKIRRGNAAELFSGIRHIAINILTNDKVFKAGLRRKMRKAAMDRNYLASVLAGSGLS

YegJ = target: T3, YegJ (E. coli K-12, UniProt P76394 1-153)
T3 construct: YegJ, E. coli K-12
T3 sequence (looked up): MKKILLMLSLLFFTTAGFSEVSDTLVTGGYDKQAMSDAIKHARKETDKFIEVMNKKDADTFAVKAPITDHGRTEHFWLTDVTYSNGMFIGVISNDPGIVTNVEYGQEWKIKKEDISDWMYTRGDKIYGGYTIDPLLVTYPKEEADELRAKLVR

YijC = target: T4, YijC (E. coli K-12, UniProt P0ACU5 1-234)
T4 construct: YijC, E. coli K-12
T4 sequence (looked up): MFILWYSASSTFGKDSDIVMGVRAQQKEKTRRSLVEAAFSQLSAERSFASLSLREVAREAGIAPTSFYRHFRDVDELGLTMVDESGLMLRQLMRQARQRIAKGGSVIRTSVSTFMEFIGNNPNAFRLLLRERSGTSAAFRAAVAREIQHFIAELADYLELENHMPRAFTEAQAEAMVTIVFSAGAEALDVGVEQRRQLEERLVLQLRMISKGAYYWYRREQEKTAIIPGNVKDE

YbaO = target: T5, YbaO (E. coli K-12, UniProt P0ACJ5 1-152)
T5 construct: YbaO, E. coli K-12
T5 sequence (looked up): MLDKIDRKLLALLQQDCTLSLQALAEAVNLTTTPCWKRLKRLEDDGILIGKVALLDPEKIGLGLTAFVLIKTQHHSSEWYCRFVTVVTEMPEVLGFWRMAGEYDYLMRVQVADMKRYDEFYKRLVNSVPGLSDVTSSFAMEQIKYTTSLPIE

RfaD = target: T6, RfaD (E. coli K-12, UniProt P67910 1-310)
T6 construct: RfaD, E. coli K-12
T6 sequence (looked up): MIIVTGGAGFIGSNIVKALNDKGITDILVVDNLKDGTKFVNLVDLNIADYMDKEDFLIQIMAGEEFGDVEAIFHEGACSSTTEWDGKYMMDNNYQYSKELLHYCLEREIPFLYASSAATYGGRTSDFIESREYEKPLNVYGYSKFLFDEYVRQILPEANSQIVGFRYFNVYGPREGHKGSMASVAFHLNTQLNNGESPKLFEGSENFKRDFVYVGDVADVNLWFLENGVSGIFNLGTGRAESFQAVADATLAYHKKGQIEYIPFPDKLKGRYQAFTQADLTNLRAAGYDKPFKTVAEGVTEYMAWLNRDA

YgiG = target: T7, YgiG (E. coli K-12, UniProt P0AC16 1-122)
T7 construct: YgiG, E. coli K-12
T7 sequence (looked up): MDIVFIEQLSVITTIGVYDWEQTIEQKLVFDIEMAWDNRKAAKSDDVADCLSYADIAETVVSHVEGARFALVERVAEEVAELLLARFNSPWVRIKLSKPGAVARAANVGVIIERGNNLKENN

Measured: binding result

B1: N-terminal biotinylated Lactoferricin B (peptide, UniProt P24627 36-60, looked up)
peptide: Biotin-FKCRRWQWRMKKLGAPSITCVRRAF
modifications: ends and bridges not checked
notes: lactoferricin B (LfcinB), cationic antimicrobial peptide of 25 amino acids; also called biotinylated LfcinB; biotin-labeled LfcinB; source: bought: Kelowna Inc
binds: all assays above
